For this data set the following is noted: Streptomyces sp. (strain N174), pH 7, Thermal, sodium phosphate 50 mM, whole UniProt chain shown.
Where [1] appears, read: CD, transition: 3, reversible: yes(85%).
Setting [2] is: Fluorescence, reversible: yes(75%).

B1: Chitosanase wild type, P33665 (protein)
chain: MHSQHRTARIALAVVLTAIPASLATAGVGYASTQASTAVKAGAGLDDPHKKEIAMELVSSAENSSLDWKAQYKYIEDIGDGRGYTGGIIGFCSGTGDMLELVQHYTDLEPGNILAKYLPALKKVNGSASHSGLGTPFTKDWATAAKDTVFQQAQNDERDRVYFDPAVSQAKADGLRALGQFAYYDAIVMHGPGNDPTSFGGIRKTAMKKARTPAQGGDETTYLNAFLDARKAAMLTEAAHDDTSRVDTEQRVFLKAGNLDLNPPLKWKTYGDPYVINS
One may read the Tm as the temperature at the midpoint of the melting transition. For B1, under setting [1], the midpoint of thermal melting (Tm) was determined as 42.7 °C and the “unfolding enthalpy (van 't Hoff)” value was determined as 120 kcal/mol. Moreover, under setting [2], the Tm was found to be 43.2 °C and the “unfolding enthalpy (van 't Hoff)” value was 161 kcal/mol.
